Measured values taken from US20160116469A1 (INSTITUTE OF ARTHRITIS RESEARCH, published 2016).

Molecular target: human TLR4 (human, UniProt O00206 24-839)
Test: cell-based or functional assay

human TLR4, sequence (O00206 24-839): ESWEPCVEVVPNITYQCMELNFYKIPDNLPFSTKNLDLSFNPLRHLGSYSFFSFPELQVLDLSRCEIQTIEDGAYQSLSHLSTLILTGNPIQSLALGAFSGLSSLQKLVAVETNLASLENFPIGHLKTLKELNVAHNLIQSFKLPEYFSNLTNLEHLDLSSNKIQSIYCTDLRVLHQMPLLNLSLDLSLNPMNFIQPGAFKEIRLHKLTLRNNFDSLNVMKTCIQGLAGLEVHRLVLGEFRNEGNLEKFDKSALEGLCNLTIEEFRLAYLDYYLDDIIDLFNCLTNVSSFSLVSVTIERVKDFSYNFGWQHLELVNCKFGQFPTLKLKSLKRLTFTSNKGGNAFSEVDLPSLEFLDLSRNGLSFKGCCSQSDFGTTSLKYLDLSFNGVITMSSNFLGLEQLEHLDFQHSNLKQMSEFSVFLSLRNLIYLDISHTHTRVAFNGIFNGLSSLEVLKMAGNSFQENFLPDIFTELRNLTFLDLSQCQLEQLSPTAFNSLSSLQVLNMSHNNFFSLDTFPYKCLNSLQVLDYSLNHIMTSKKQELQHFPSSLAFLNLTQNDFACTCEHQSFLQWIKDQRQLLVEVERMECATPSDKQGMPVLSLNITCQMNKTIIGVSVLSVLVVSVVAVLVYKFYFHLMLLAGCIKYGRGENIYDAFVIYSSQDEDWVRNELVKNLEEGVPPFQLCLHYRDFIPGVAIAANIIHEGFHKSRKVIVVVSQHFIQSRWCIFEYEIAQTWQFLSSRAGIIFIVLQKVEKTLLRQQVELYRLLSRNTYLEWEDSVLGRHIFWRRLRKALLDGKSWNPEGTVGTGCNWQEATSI

KSIAYLQMNSLK [PeptideX2]
NF-κB-driven SEAP reporter, human TLR4-transfected HEK293 cells, response relative to E. coli K12 LPS at 100 ng/ml: 10 % of the response to E. coli K12 LPS
